One assay concerns the target VRC34.01_combo1 Fab. Nature of the assay: BLI. As to conditions: n = 3 independent experiments; parent: est. 1.0; read off a plot.
The target in assay [1] is fusion peptide V1 (ITC peptide) (HIV-1). Nature of the assay: ITC. (In general: ITC needs no label: the signal is the heat of the interaction.)
For assay [2], the target named is fusion peptide V1 (ITC peptide). Briefly: ITC. As to conditions: parent: est. 33; read off a plot.
The target in assay [3] is BG505 SOSIP trimer with FP v3 (AIGLGAMF). Nature of the assay: yeast display FACS sort with NGS. The following applies: Round 3 high-affinity sort, read off a plot.
The target in assay [4] is BG505 SOSIP trimer with FP Thai (AVGIGAMI). Nature of the assay: yeast display FACS sort with NGS. The following applies: Round 3 high-affinity sort, read off a plot.
Assay [5] addresses BG505 SOSIP trimer with FP v1 ([…]). Briefly: yeast display FACS sort with NGS. As to conditions: Round 3 high-affinity sort, VH-SSM library; parent: est. 1.8; read off a plot.
Assay [6] has as its target fusion peptide FP_v1 (V1: […]) (HIV-1). Nature of the assay: ITC.
The mark [7] stands for this setting: VH-SSM library, parent: est. 1.4.
Where [8] appears, read: VL-SSM library, parent: est. 0.4.

“His-tagged fusion peptide (residue 512-521), wild type (BLI peptide) A512G”: the ratio to parent in the assay with VRC34.01_combo1 Fab was 0.88. Turning to “His-tagged fusion peptide (residue 512-521), wild type (BLI peptide) A517G”, the ratio to parent with VRC34.01_combo1 Fab is 0.97. As for “His-tagged fusion peptide (residue 512-521), wild type (BLI peptide) F519G”, the ratio to parent with VRC34.01_combo1 Fab came to 0.82. Consider “His-tagged fusion peptide (residue 512-521), wild type (BLI peptide) G514A”, for which the ratio to parent in the assay with VRC34.01_combo1 Fab is 0.97. As to “His-tagged fusion peptide (residue 512-521), wild type (BLI peptide) G516A”, in the assay with VRC34.01_combo1 Fab, the ratio to parent stood at 0.14. “His-tagged fusion peptide (residue 512-521), wild type (BLI peptide) I515A”: the ratio to parent with VRC34.01_combo1 Fab came out at 0.12. Same read-out and setting: the value for “His-tagged fusion peptide (residue 512-521), wild type (BLI peptide) I515G” was 0.01; that for “His-tagged fusion peptide (residue 512-521), wild type (BLI peptide) V513A” was 0.47; that for “His-tagged fusion peptide (residue 512-521), wild type (BLI peptide) V513G” was 0.01.

For “His-tagged fusion peptide (residue 512-521), wild type (BLI peptide) V518A”, the ratio to parent with VRC34.01_combo1 Fab was determined as 0.97.

Take “His-tagged fusion peptide (residue 512-521), wild type (BLI peptide) V518G”: the ratio to parent with VRC34.01_combo1 Fab came to 0.83. One may read the Kd as a measure of binding affinity in units of concentration. Take VRC34.01 (template antibody), IgG: the Kd in assay [1] amounted to 33 nM. Turning to VRC34.01 (template antibody), IgG H:E2K, the Kd in assay [2] amounted to 27 nM.

As for “VRC34.01 (template antibody), IgG H:E2K; H:A33P; H:T59F”, the dissociation constant Kd in assay [2] was 2.2 nM. Consider “VRC34.01 (template antibody), IgG H:T59F”, for which, in assay [2], the dissociation constant (Kd) was 7.5 nM. Regarding VRC34.01 Fab H:A33P, in assay [3] (setting [7]), the enrichment stood at 55. Regarding VRC34.01 Fab H:K12A, in assay [4] (VH-SSM library, parent: est. 0.7), the enrichment turned out to be 450. Consider VRC34.01 Fab H:T58Q, for which the enrichment in assay [5] amounted to 400. As for VRC34.01 Fab H:T59F, the enrichment in assay [3] (setting [7]) stood at 480. On to VRC34.01 Fab H:T59Y, for which the enrichment in assay [3] (setting [7]) came out at 2500.

Take VRC34.01 Fab L:D1Y: the enrichment in assay [4] (setting [8]) worked out at 580. As to VRC34.01 Fab L:S92T, the enrichment amounted to 440 in assay [4] (setting [8]) and 110 in assay [3] (VL-SSM library, parent: est. 1.7). In the case of VRC34.01 VH_T59F, IgG (antibody), the fold higher affinity than VRC34.01 in assay [1] is 4 fold. As to VRC34.01-HC-E2K (antibody), in assay [6], the Kd stood at 28 nM. What is called stoichiometry N is the number of molecules, sites or subunits per partner or assembly. With VRC34.01-HC-T59F (antibody), in assay [6], the dissociation constant (Kd) was determined as 7.7 nM and the stoichiometry N was 0.8. “VRC34.01_combo1 (VH_E2K_T59F), IgG (antibody)” displayed a fold better binding than VRC34.01 in assay [1] of 6 fold.

(Values after publication PMC10663459.)
